Assay results from patent US20250290928A1, “METHOD, KIT AND DEVICE FOR DETECTING EXTRACELLULAR VESICLES” (priority 2022, published 2025).
*: point of attachment. 5FAM = O=C1OC2(c3ccc(O)cc3Oc3cc(O)ccc32)c2ccc(C(=O)*)cc21; TQ2 = quencher

Key:
Format in all cases: biochemical
[1] = biological target: T1, MMP14 in the MDA-MB-231-derived extracellular vesicles (Homo sapiens, UniProt P50281); assay: Digital detection of MDA-MB-231-derived extracellular vesicles through MMP14 activity in wells (microcompartments)
T1 construct: in terms of intact MMP14 with a molecular weight of 70 kDa
Description: The concentration of the solution is 6.7 μg/mL.
100 μL of the MMP14 detection solution was added to 100 μL of the sample to provide a reaction solution for wells. […] 100 μL of 200 μL of the prepared reaction solution for wells was used in the measurement of MMP14 activity with a 96-well plate.
Next, the wells were filled with the reaction solution by leaving the well array 200 to stand under reduced pressure to degas the space 205. After that, the space 205 was fed with hydrophobic solvents to be sealed. Fluorinated oils AsahiKlin AE-3000 (manufactured by AGC Inc.) and Fomblin Y-25 (manufactured by Solvay S.A.) were used as the hydrophobic solvents. A fluorinated oil Simoa (trademark) SR-X Sealing Oil: 102767 (manufactured by Quanterix Corporation) was further used as another hydrophobic solvent.
Well diameter: 4.25 μm Well depth: 3.25 μm Well capacity: 50 fL Number of wells in array: 239,000 Array range: 3 mm×4 mm
(§1) The concentration of the solution is 20 μg/mL. […] The concentration of the solution was set to x1, and 10-fold serial dilution was performed to prepare standard samples with five concentrations.
Next, the wells were filled with the reaction solution by leaving the well array 200 to stand under reduced pressure to degas the space 205. After that, the space 205 was fed with hydrophobic solvents to be sealed.
The concentration of the solution is 20 μg/mL. […] The concentration of the solution was set to x1, and 3-fold serial dilution was performed to prepare standard samples with three concentrations.
The concentration of the solution is 20 μg/mL. […] The concentration of the solution was set to x1, and 2-fold serial dilution was performed to prepare standard samples with four concentrations.
The concentration of the solution is 5 μg/mL.
50 μL of the MMP14 detection solution was added to 50 μL of the sample to provide a reaction solution for wells.
50 μL of each of the MMP14 detection solutions was added to 50 μL of the sample to provide a reaction solution for wells.
The concentration of the solution is 6.7 µg/mL.

[2] = biological target: T2, MMP14 in the A549-derived extracellular vesicles (Homo sapiens, UniProt P50281); assay: Evaluation of MMP14 activity of A549-derived extracellular vesicles with 96-well plate; conditions: Example 21, buffer (4), reporter 5 μM, 37° C.
T2 construct: host or cells: A549 (purified exosomes)
Description: The MMP14 activity was evaluated with a 96-well plate (manufactured by Thermo Fisher Scientific Inc., model number: 137101). A fluorescence intensity was measured with a fluorescence plate reader (Synergy MX, manufactured by BioTek Instruments, Inc.) at […] every 5 min for 1 hour. For measurement wavelengths, an excitation wavelength of 485±20 nm and a fluorescence wavelength of 528±20 nm were used.
With regard to the COLO201-derived extracellular vesicles, the concentration of the solution was set to x1/10, and 3-fold serial dilution was performed to prepare standard samples with three concentrations.
50 μL of the MMP14 detection solution was added to 50 μL of each of the samples, a reaction was performed at 37° C., and MMP14 activity was evaluated.
as §1
(§2) The concentration of the solution is 10 μg/mL.
Evaluation was performed in the same manner as in Example 1 except that the reaction temperature was set to 23° C. ΔRFU was calculated by subtracting the measured value of the sample for BG measurement from the measured value of each of the samples.

[3] = biological target: T2, MMP14 in the A549-derived extracellular vesicles; assay: Digital detection of A549-derived extracellular vesicles through MMP14 activity in wells (Simoa Discs); conditions: for Expected value λ / Number of positives / Positive ratio: Example 21, 37° C.
Description: as §1, §2

[4] = Example 20, 37° C., 5 h, BG, EV 0 (free of extracellular vesicles, pseudopositive)
[5] = Example 20, 37° C., 5 h, ΔBG Absent, EV 0.0001 a.u.
[6] = Example 20, 37° C., 5 h, ΔBG Absent, EV 0.001 a.u.
[7] = Example 20, 37° C., 5 h, ΔBG Absent, EV 0.01 a.u.
[8] = Example 20, 37° C., 5 h, ΔBG Absent, EV 0.1 a.u.
[9] = Example 20, 37° C., 5 h, ΔBG Absent, EV 1 a.u. (x1=10 μg/mL)
[10] = Example 20, 37° C., 5 h, ΔBG Present (positives at EV 0 subtracted), EV 1 a.u.
[11] = Example 20, 37° C., 5 h, ΔBG Present, EV 0.001 a.u.
[12] = Example 20, 37° C., 5 h, ΔBG Present, EV 0.01 a.u.
[13] = Example 20, 37° C., 5 h, ΔBG Present, EV 0.1 a.u.
[14] = Example 22, buffer (2), 37° C., 1 h, EV 0 (free of extracellular vesicles)
[15] = Example 22, buffer (2), 37° C., 1 h, EV 0.111 a.u.
[16] = Example 22, buffer (2), 37° C., 1 h, EV 0.333 a.u.
[17] = Example 22, buffer (2), 37° C., 1 h, EV 1 a.u. (x1=10 μg/mL)
[18] = Example 22, buffer (2), 37° C., 2 h, EV 0 (free of extracellular vesicles)
[19] = Example 22, buffer (2), 37° C., 2 h, EV 0.111 a.u.
[20] = Example 22, buffer (2), 37° C., 2 h, EV 0.333 a.u.
[21] = Example 22, buffer (2), 37° C., 2 h, EV 1 a.u. (x1=10 μg/mL)
[22] = 5 h, BG, EV 0 (free of extracellular vesicles, pseudopositive)
[23] = 5 h, ΔBG Absent, EV 0.0001 a.u.
[24] = 5 h, ΔBG Absent, EV 1 a.u. (x1=10 μg/mL)
[25] = 5 h, ΔBG Present (positives at EV 0 subtracted), EV 1 a.u.
[26] = 5 h, ΔBG Present, EV 0.0001 a.u.
[27] = 5 h, ΔBG Present, EV 0.001 a.u.

Substance: [5-FAM]GRIGFLRTAK(TQ2)[OH] (5FAM-GRIGFLRTAK(TQ2)-OH) [Custom #1]
- Expected value λ [1, 4]: 0.000553
- Number of positives [1, 4]: 32
- Positive ratio [1, 4]: 0.000553
- Expected value λ [1, 5]: 0.000535
- Number of positives [1, 5]: 31
- Positive ratio [1, 5]: 0.000534
- Expected value λ [1, 6]: 0.00285
- Number of positives [1, 6]: 165
- Positive ratio [1, 6]: 0.00285
- Expected value λ [1, 7]: 0.0115
- Number of positives [1, 7]: 661
- Positive ratio [1, 7]: 0.0114
- Expected value λ [1, 8]: 0.137
- Number of positives [1, 8]: 7,404
- Positive ratio [1, 8]: 0.128
- Expected value λ [1, 9]: 1.16
- Number of positives [1, 9]: 39,601
- Positive ratio [1, 9]: 0.686
- Expected value λ [1, 10]: 1.16
- Number of positives [1, 10]: 39,569
- Positive ratio [1, 10]: 0.685
- Number of positives ([1]; Example 20, 37° C., 5 h, ΔBG Present, EV 0.0001 a.u.): −1
- Expected value λ [1, 11]: 0.0023
- Number of positives [1, 11]: 133
- Positive ratio [1, 11]: 0.0023
- Expected value λ [1, 12]: 0.0109
- Number of positives [1, 12]: 629
- Positive ratio [1, 12]: 0.0109
- Expected value λ [1, 13]: 0.136
- Number of positives [1, 13]: 7,372
- Positive ratio [1, 13]: 0.128
- λ at x1 in an approximation with BG correction ([1]; Example 20, 5 h): 1.07
- λ at x1 in an approximation without BG correction ([1]; Example 20, 5 h): 1.03
- Extracellular vesicle concentration ([1]; Example 20, with BG correction): 2.1e+10 mL⁻¹
- extracellular vesicles in which MMP14 activity can be detected, contained in 1 μL of the extracellular vesicles (50 μg of protein in 50 μL of PBS) ([1]; Example 20, with BG correction): 2.1×10^9
- Extracellular vesicle concentration ([1]; Example 20, without BG correction): 2.1×10^9 /μg of protein
- Extracellular vesicle concentration ([1]; Example 20, without BG correction, reaction solution 10 μg of protein/mL, 50 fL): 2.1e+10 mL⁻¹
- expected value λ at x1 (power approximation) ([1]; Example 22, after 1 hour): 0.661
- expected value λ at x1 (power approximation) ([1]; Example 22, after 2 hours): 0.7145
- Expected value λ [1, 14]: 0.000725
- Number of positives [1, 14]: 21
- Positive ratio [1, 14]: 0.000725
- Expected value λ [1, 15]: 0.0784
- Number of positives [1, 15]: 2,186
- Positive ratio [1, 15]: 0.0754
- Expected value λ [1, 16]: 0.237
- Number of positives [1, 16]: 6,117
- Positive ratio [1, 16]: 0.211
- Expected value λ [1, 17]: 0.65
- Number of positives [1, 17]: 13,855
- Positive ratio [1, 17]: 0.478
- Expected value λ [1, 18]: 0.000794
- Number of positives [1, 18]: 23
- Positive ratio [1, 18]: 0.000794
- Expected value λ [1, 19]: 0.0822
- Number of positives [1, 19]: 2,287
- Positive ratio [1, 19]: 0.0789
- Expected value λ [1, 20]: 0.238
- Number of positives [1, 20]: 6,143
- Positive ratio [1, 20]: 0.212
- Expected value λ [1, 21]: 0.719
- Number of positives [1, 21]: 14,860
- Positive ratio [1, 21]: 0.513
- extracellular vesicle concentration at which MMP14 activity was able to be detected in the microcompartments ([1]; Simoa Discs, buffer (4), reporter 5 μM, 37° C.): ≥ 10 ng/mL
- extracellular vesicle concentration at which MMP14 activity was able to be detected with a 96-well plate [2]: ≥ 10 µg/mL
- Expected value λ [3, 22]: 0.000656
- Number of positives [3, 22]: 38
- Positive ratio [3, 22]: 0.000656
- Expected value λ [3, 23]: 0.000725
- Number of positives [3, 23]: 42
- Positive ratio [3, 23]: 0.000724
- Expected value λ ([3]; 5 h, ΔBG Absent, EV 0.001 a.u.): 0.000985
- Number of positives ([3]; 5 h, ΔBG Absent, EV 0.001 a.u.): 57
- Positive ratio ([3]; 5 h, ΔBG Absent, EV 0.001 a.u.): 0.000984
- Expected value λ ([3]; 5 h, ΔBG Absent, EV 0.01 a.u.): 0.00207
- Number of positives ([3]; 5 h, ΔBG Absent, EV 0.01 a.u.): 119
- Positive ratio ([3]; 5 h, ΔBG Absent, EV 0.01 a.u.): 0.00206
- Expected value λ ([3]; 5 h, ΔBG Absent, EV 0.1 a.u.): 0.0137
- Number of positives ([3]; 5 h, ΔBG Absent, EV 0.1 a.u.): 789
- Positive ratio ([3]; 5 h, ΔBG Absent, EV 0.1 a.u.): 0.0136
- Expected value λ [3, 24]: 0.149
- Number of positives [3, 24]: 8,036
- Positive ratio [3, 24]: 0.139
- Expected value λ [3, 25]: 0.148
- Number of positives [3, 25]: 7,998
- Positive ratio [3, 25]: 0.138
- Expected value λ [3, 26]: 0.000069
- Number of positives [3, 26]: 4
- Positive ratio [3, 26]: 0.000069
- Expected value λ [3, 27]: 0.000328
- Number of positives [3, 27]: 19
- Positive ratio [3, 27]: 0.000328
- Expected value λ ([3]; 5 h, ΔBG Present, EV 0.01 a.u.): 0.00141
- Number of positives ([3]; 5 h, ΔBG Present, EV 0.01 a.u.): 81
- Positive ratio ([3]; 5 h, ΔBG Present, EV 0.01 a.u.): 0.0014
- Expected value λ ([3]; 5 h, ΔBG Present, EV 0.1 a.u.): 0.013
- Number of positives ([3]; 5 h, ΔBG Present, EV 0.1 a.u.): 751
- Positive ratio ([3]; 5 h, ΔBG Present, EV 0.1 a.u.): 0.0129
- λ at x1 in an approximation with BG correction ([3]; Example 21, 5 h): 0.120
- λ at x1 in an approximation without BG correction ([3]; Example 21, 5 h): 0.102
- extracellular vesicle concentration at which MMP14 activity was able to be detected in the microcompartment ([3]; Example 21, Simoa Discs, buffer (4), reporter 5 μM, 37° C., 5 h): ≥ 100 ng/mL
- Extracellular vesicle concentration ([3]; Example 21, with BG correction): 2.4e+09 mL⁻¹
- extracellular vesicles in which MMP14 activity can be detected, contained in 1 μL of the extracellular vesicles (50 μg of protein in 50 μL of PBS) ([3]; Example 21, with BG correction): 2.4×10^8
- Extracellular vesicle concentration ([3]; Example 21, without BG correction): 2.0×10^8 /μg of protein
- Extracellular vesicle concentration ([3]; Example 21, without BG correction, reaction solution 10 μg of protein/mL, 50 fL): 2e+09 mL⁻¹
